These results are taken from publication PMC9825183, “A cap 0-dependent mRNA capture method to analyze the yeast transcriptome”.

Data set [1] has as its system IFIT1 (His-SUMO removed) (Homo sapiens). In words: MST. To be noted: apparent Kd; 10 nM RNA, protein up to 1 uM; 5' cap 0 (m7Gppp), Vaccinia Capping System; MST: PBS, 5% glycerol, 0.5 mM TCEP, 0.05% Tween20, 22 C. Pull-down: 50 mM Tris pH 7.5, 150 mM NaCl (wash 250 mM), 1 mM DTT, 5 mM imidazole, 0.01% Tween 20, 3 mM.
For data set [2], the target named is T1, IFIT1 (6xHis) (Homo sapiens, UniProt P09914 1-478).
T1 sequence: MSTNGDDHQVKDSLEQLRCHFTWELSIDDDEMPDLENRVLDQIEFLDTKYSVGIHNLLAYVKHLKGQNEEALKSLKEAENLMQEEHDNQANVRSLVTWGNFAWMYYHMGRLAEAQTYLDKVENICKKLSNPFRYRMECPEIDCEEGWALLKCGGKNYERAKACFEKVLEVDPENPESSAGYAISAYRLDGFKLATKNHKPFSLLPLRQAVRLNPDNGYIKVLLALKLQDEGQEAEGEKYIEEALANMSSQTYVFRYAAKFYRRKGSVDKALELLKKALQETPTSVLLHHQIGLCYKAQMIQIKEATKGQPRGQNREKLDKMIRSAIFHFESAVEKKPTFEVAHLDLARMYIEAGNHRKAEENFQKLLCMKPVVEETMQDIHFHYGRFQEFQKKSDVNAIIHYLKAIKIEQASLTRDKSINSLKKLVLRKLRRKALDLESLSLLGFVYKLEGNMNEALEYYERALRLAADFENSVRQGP
In words: pull-down; Con-B; mix of four RNAs; poly(dI-dC) 2 ug/ml; 3 mM MgCl2; MST: PBS, 5% glycerol, 0.5 mM TCEP, 0.05% Tween20, 22 C. Pull-down: 50 mM Tris pH 7.5, 150 mM NaCl (wash 250 mM), 1 mM DTT, 5 mM imidazole, 0.01% Tween 20, 3 mM MgCl2, 2 ug/ml poly(dI-dC), 4 C. To be noted: protein: recombinant; tags: 6xHis (pETG10a; tag described as N-terminal); single-stranded 5' end (predicted).

In the case of Cap 0-100-mer (Cy5), the Kd in data set [1] worked out at 47 nM.

B1: cap 0 160-mer (ssRNA)
RNA: GAAUACACGGAAUUCCUUUUUUUUUUUUUUUUUUUUUUUUAAGAAAGGCAGACUGCCACAUGCAGCGCCUCAUUUGGAUGUGUCUGGAGUCUUGGAAGCUUGACUACCCUACGUUCUCCUACAAAUGGACCUUGAGAGCUUGUUUGGAGGUUCUAGCAGG
modifications: 5' cap 0 (m7Gppp), Vaccinia Capping System
Regarding B1, in data set [2], the binding result is on record as “binds”.
